Reference: patent US11491212
“And” between values parts separate entries of the source, which are not always exact repeats. Identical values can stand only once.

B1: FIXa-Y155F/R318Y/R338E/R403E/E410N (protein)
chain 1: not shown
chain 2: not shown
B2: FIXa-D104N/K106S/R318Y/R338E/R403E/E410N (protein)
chain 1: not shown
chain 2: not shown
B3: FIXa-Y155F/R318Y/R403E/E410N (protein)
chain 1: not shown
chain 2: not shown
B4: FIXa-R318Y/R403E/E410N (protein)
chain 1: not shown
chain 2: not shown
B5: FIXa-R318Y/R338E/R403E/E410N (protein)
chain 1: not shown
chain 2: not shown
B6: FIXa-K228N/R318Y/E410N (protein)
chain 1: not shown
chain 2: not shown
B7: FIXa-D203N/F205T/R338E/R403E (protein)
chain 1: not shown
chain 2: not shown
B8: FIXa-A103N/N105S/Y155F/R318Y/R338E/R403E/E410N (protein)
chain 1: not shown
chain 2: not shown
B9: FIXa-D104N/K106S/Y155F/R318Y/R338E/R403E/E410N (protein)
chain 1: not shown
chain 2: not shown
B10: FIXa-Y155F/R318Y/R338E/E410N (protein)
chain 1: not shown
chain 2: not shown
B11: FIXa-A103N/N105S/R318Y/R338E/R403E/E410N (protein)
chain 1: not shown
chain 2: not shown
B12: FIXa-D104N/K106S/R318Y/R338E/E410N (protein)
chain 1: not shown
chain 2: not shown

Target: Factor X (FX), P00742
Sequence (P00742 whole entry, looked up): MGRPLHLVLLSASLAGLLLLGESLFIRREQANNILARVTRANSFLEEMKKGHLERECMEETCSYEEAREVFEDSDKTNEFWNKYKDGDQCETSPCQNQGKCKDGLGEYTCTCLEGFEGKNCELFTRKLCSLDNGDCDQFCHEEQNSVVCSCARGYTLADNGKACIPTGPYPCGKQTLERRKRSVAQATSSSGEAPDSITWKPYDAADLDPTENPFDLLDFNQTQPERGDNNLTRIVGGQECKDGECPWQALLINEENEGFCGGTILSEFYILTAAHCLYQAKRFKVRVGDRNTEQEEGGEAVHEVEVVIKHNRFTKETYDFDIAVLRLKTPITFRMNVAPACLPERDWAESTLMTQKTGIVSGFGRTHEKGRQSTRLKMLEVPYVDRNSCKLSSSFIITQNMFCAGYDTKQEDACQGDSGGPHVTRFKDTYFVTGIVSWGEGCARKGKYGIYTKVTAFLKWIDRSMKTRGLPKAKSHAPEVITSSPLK

Protein | % of WT kcat/KM | KM [µM] | KM for FX activation by FIXa in the Xase complex (FVIIIa/PC-PS/Ca2+), fluorogenic Spectrafluor FXa assay [µM] | kcat [s⁻¹] | kcat/KM [M⁻¹ s⁻¹]
B1 | 418% and 406% | 0.0304 | 0.0304 | 5.3 | 
B2 | 377% and 366% | 0.0385 | 0.0385 | 5.7 | 
B3 | 78% | 0.111 |  | 2.9 | 
B4 | 59% and 54% | 0.0942 | 0.0883 | 2.3 | 2.7e+07
B5 | 262% and 320% | 0.0432 | 0.0455 | 5.8 | 1.2e+08
B6 | 272% and 264% | 0.042 | 0.042 | 5 | 
B7 |  | 0.0511 | 0.0511 | 0.9 | 
B8 | 283% and 274% | 0.0507 | 0.0507 | 6.4 | 
B9 | 394% and 382% | 0.048 | 0.048 | 8.5 | 
B10 | 835% and 810% | 0.016 | 0.016 | 5.6 | 
B11 | 327% and 318% | 0.0447 | 0.0447 | 5.4 | 
B12 | 581% and 564% | 0.0189 | 0.0189 | 4.8 | 
